According to the supplement of paper PMC9732359:
± gives the uncertainty stated by the source.

Experiment: protein stability index of a GFP-peptide fusion (yeast GPS) (PSI 1-4); higher = more stable; sorted into four equal gates, so the index is relative within each strain
Summary of the method: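 Yeast carrying a pooled library were grown to mid-log phase in leucine-free medium. Each library plasmid expresses Cherry and has a tiled 17-residue yeast protein peptide fused downstream of GFP. Cells were sorted into four equal gates by GFP/Cherry ratio, and plasmids from each gate were PCR-amplified, Illumina-sequenced and assigned to strains by barcode. Summing, across gates, the read frequency times the gate number gave each peptide's protein stability index.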

| Sequence | protein stability index (doa10∆) | protein stability index (pdr5∆) | protein stability index (san1∆) | protein stability index (ubr1∆) |
| --- | --- | --- | --- | --- |
| NNKILEKCKEINVETVY [BRR2] | 1.73 ± 0.06 | 2 ± 0.062 | 1.78 ± 0.19 | 2.06 ± 0.067 |
| SGTYHLNCGNGMGIGFI [POP1] | 3.07 ± 0.077 | 2.93 ± 0.063 | 2.44 ± 0.077 | 3.11 ± 0.041 |
| NSADVDMDAQGRSDSNT [YGL100W/SEH1] | 3.45 ± 0.096 | 3.39 ± 0.088 | 3.1 ± 0.12 | 3.29 ± 0.061 |
| TKGDTSKATGAPSANQG [RTT102] | 3.18 ± 0.065 | 3.35 ± 0.074 | 3.29 ± 0.045 | 3.24 ± 0.059 |
| SFFIASQLQEQFNKILP [FAS1] | 2.69 ± 0.15 | 3.13 ± 0.15 | 2.54 ± 0.081 | 2.77 ± 0.07 |
| SSTDIPSYTHVLISKLS [RRI1] | 2.13 ± 0.045 | 2.42 ± 0.048 | 2.42 ± 0.049 | 2.35 ± 0.037 |
| GCENPADVFRRCLVAVI [SRP72] | 1.93 ± 0.055 | 1.48 ± 0.048 | 2.29 ± 0.088 | 1.98 ± 0.077 |
| KLSDIFLSKPSKALYPD [SNF2] | 2.53 ± 0.041 | 2.84 ± 0.049 | 2.61 ± 0.042 | 2.7 ± 0.041 |
| KEISTRVFNAKDTTGPK [YCS4] | 3.04 ± 0.11 | 2.91 ± 0.13 | 3.21 ± 0.081 | 2.99 ± 0.089 |
| NVKVIMATNRADTLDPA [RPT3] | 2.67 ± 0.1 | 2.07 ± 0.086 | 1.94 ± 0.22 | 2.44 ± 0.057 |
| KNIPKTRYNRDYMLSMA [SNU114] | 1.94 ± 0.054 | 2.4 ± 0.054 | 2.9 ± 0.056 | 1.87 ± 0.039 |
| VLTGGYLDQHKRTRLES [SMC3] | 2.26 ± 0.17 | 2.04 ± 0.23 | 1.19 ± 0.16 | 2.62 ± 0.26 |
| AGMTTIVRDLDRPGSKF [RPL3] | 2.39 ± 0.11 | 3.24 ± 0.18 | 2.95 ± 0.08 | 3.15 ± 0.11 |
| SLLASKSTYRTPNFDDV [RIP1] | 2.78 ± 0.29 | – | – | 3.49 ± 0.17 |
| KQHAVLMLGSVNLPGGI [RRP4] | 2 ± 0.049 | 2.17 ± 0.058 | 1.94 ± 0.081 | 1.66 ± 0.037 |
| FAGEAGDTVQFAEYIQA [PRE1] | 1.72 ± 0.089 | 1.74 ± 0.094 | 1.75 ± 0.13 | 2.09 ± 0.054 |
| YVIHGIELLSDLINILE [LIN1] | – | 2.74 ± 0.25 | – | 2.43 ± 0.14 |
| LVISLAATNETFENINS [IRR1] | 2.07 ± 0.11 | 2.4 ± 0.13 | 1.9 ± 0.095 | – |
| RELLNPRYTYHTIFSDV [YML031W/NDC1] | 3.01 ± 0.053 | 3.05 ± 0.052 | 2.71 ± 0.045 | 2.93 ± 0.058 |
| FIRVIGSELVQKYVGEG [RPT1] | 2.59 ± 0.21 | 2.57 ± 0.076 | 3 ± 0.083 | 2.84 ± 0.05 |
| DSSSQCIVDFTNPKLKS [YMR129W/POM152] | 2.2 ± 0.053 | 2.43 ± 0.058 | 2.33 ± 0.072 | 1.96 ± 0.044 |
| WTMAFRTMDDIKDSVRE [ECM29] | – | 2.5 ± 0.16 | 2.67 ± 0.11 | 2.66 ± 0.12 |
| KLEGSENSEPPALESSP [SNF2] | 3.09 ± 0.073 | 2.97 ± 0.064 | 3.28 ± 0.071 | 3.26 ± 0.057 |
| NASANSTSFSFNAPATG [YOR098C/NUP1] | 2.99 ± 0.049 | 2.94 ± 0.051 | 3.05 ± 0.046 | 2.96 ± 0.033 |
| LQKQILTVENKLQFETD [SMC1] | 2.6 ± 0.069 | 2.37 ± 0.052 | 2.55 ± 0.047 | 2.9 ± 0.046 |
| DLNPLKTLNLFKQIKSA [RPO31] | 2 ± 0.16 | 1.37 ± 0.033 | 2.62 ± 0.11 | 2.15 ± 0.071 |
| WSEISNELPDIEALYDD [RPN2] | 3.49 ± 0.29 | 3.57 ± 0.25 | 3.29 ± 0.16 | 3.12 ± 0.11 |
